The text below walks through data of paper doi:10.1101/2024.01.24.577129, “IgG hexamers initiate acute lung injury” (bioRxiv, 2024).

In assay [1] the target is T1, K^d MHC class I monomer presenting VYLKTNVFL (Mus musculus, H-2d haplotype (K^d), UniProt P01902;P01887).
T1 chain 1: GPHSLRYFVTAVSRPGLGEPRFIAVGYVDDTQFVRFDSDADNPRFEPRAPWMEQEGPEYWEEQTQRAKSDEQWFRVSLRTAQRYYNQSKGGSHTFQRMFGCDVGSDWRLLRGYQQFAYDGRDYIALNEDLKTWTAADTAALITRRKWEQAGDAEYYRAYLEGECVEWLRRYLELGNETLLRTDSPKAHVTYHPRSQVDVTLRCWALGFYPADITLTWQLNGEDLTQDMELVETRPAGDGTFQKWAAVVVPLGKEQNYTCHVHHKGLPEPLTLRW
T1 chain 2: not shown
T1 chain 3: VYLKTNVFL

Assay [2] concerns the target T2, K^b MHC class I monomer presenting SIINFEKL (Mus musculus, H-2b haplotype (K^b), UniProt P01901;P01887).
T2 construct: Commercial MHC class I monomer; also called H-2K^b; MBL International TB-5001-M; copies: + +
Description: SPR; monoclonal antibody bound via amine coupling to SensEye G Easy2Spot sensors; serial dilutions (0.5-200 nM) of MHC class I monomers injected; triplicate; IBIS MX96 SPR imager. The settings on record: both partners purified. Background: In SPR one partner is held on a chip, and binding of the other changes the refractive index at the surface.

Assay [3] addresses T3, D^b MHC class I monomer presenting … (Mus musculus, H-2b haplotype (D^b), UniProt P01899;P01887).
T3 construct: Commercial MHC class I monomer; also called H-2D^b; MBL International TB-5008-M; copies: + +
The assay is described as above. The settings on record: both partners purified.

B1: Kd1 (antibody, V domains shown)
VH: EVLLVESGGDLVKPGGSLKLSCAASGFTFRTYAMSWVRQTPEKRLEWVATIGDDGSYTFYPDNVKGRFTISRDNAKNNLYLQMRHLKSEDTAIYFCARDGLFAYWGQGTLVTVSA
VL: DIQMTQSPSSLSASLGGKVTITCKASQDIKKNIAWYQYKPGKGPRLLIHYTSTLQPGISSRFSGSGSGRDYSFSISNLEPEDIATYYCLQYDSLLYTFGGGTKLEIK
Take B1: the binding result in assay [1] is listed as “binds”.

B2: 34-1-2S antibody (antibody, V domains shown)
VH: EVQLQQSGAEFVRPGASVKLSCTASGFNLKDDYMFWVKQRPEQGLEWIGWIAPDNGDTEYASKFQGKATITADTSSNTAYVQLSSLTSEDTAVYYCTTWGYYSYVNYWGQGTTLTVSS
VL: DIQMTQSPSSLSASLGERVSLTCRASQDIGSNLNWLQQEPDGTIKRLIYATYSLDSGVPKRFSGSRSGSDYSLTISSLESEDFVDYYCLQYASSPYTFGGGTKLEIK
notes: heavy chain variable region of 34-1-2S; mouse IgG2a heavy chain constant region; the class follows from the mIgG2a isotype control and the mIgG2a model; light chain variable region of 34-1-2S; light chain constant region of the mouse antibody; Mouse IgG2a monoclonal antibody; also called clone 34-1-2S; MHC class I alloantibody 34-1-2S; source: bought: BioXCell Cat# BE0180 (stated for the injury …)
On to B2, for which the binding result is recorded as “binds” in assay [2] and “no binding (tested: 0.5-200 nM)” in assay [3].
